Legend:
Test in all cases: cell-based or functional assay
[1] = target: T1, AVR3a homolog from Phytophthora palmivora designated as L3B (Phytophthora palmivora)
T1 sequence: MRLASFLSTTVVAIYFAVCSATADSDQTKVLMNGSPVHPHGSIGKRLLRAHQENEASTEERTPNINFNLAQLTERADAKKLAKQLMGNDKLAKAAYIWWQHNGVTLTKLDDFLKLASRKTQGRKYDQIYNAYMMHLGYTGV

[2] = target: T2, AVR3a homolog from Phytophthora palmivora designated as L6B (Phytophthora palmivora)
T2 sequence: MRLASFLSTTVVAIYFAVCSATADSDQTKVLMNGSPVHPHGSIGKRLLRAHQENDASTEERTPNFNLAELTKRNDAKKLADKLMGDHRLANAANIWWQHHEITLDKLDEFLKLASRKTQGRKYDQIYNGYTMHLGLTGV

[3] = target: AVR3a^KI effector protein of Phytophthora infestans (Phytophthora infestans) (UniProt Q572D3)
[4] = target: T3, AVR3a homolog from Phytophthora palmivora designated as L7B (Phytophthora palmivora)
T3 sequence: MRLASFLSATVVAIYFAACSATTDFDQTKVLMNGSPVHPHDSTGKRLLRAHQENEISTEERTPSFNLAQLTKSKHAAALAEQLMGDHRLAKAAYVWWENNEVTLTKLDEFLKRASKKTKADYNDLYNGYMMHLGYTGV

B1: modified R3a protein corresponding to clone GS4 (protein)
chain: MEIGLAVGGAFLSSALNVLFDRLAPHGDLLNMFQKHKDHVKLLKKLEDILLGLQIVLSDAENKQASNRHVSQWFNKLQNAVDGAENLIEQVNYEALRLKVEGQHQNLAETSNQQVSDLNLCFSDDFFLNIKDKLEETIETLEVLEKQIGRLGLKEHFGSTKQETRTPSTSLVDDSDIFGRQNDIEDLIDRLLSEDASGKKRTVVPIVGMGGLGKTTLAKAVYNDERVQIHFGLKAWFCVSEAFDAFRITKGLLQEIGSFDLKADDNLNQLQVKLKERLKGKKFLIVLDDVWNDNYNKWDELRNVFVQGDIGSKIIVTTRKESVALMMGNEQISMDNLSTESSWSLFKTHAFENMGPMGHPELEEVGKQIAAKCKGLPLALKTLAGMLRSKSEVEEWKRILRSEIWELPHNDILPALMLSYNDLPAHLKRCFSFCAIFPKDYPFRKEQVIHLWIANGLVPQEDVIIEDSGNQYFLELRSRSLFERVPNPSQGNTENLFLMHDLVNDLAQIASSKLCIRLEESQGSHMLEQSQHLSYSMGYGGEFEKLTPLYKLEQLRTLLPTCIDLPDCCHHLSKRVLHNILPRLTSLRALSLSCYEIVELPNDLFIKLKLLRFLDISRTEIKRLPDSICALYNLETLLLSSCYDLEELPLQMEKLINLRHLDISNTRPLKMPLHLSKLKSLQVLVGAKFLIGGLRMEDLGEVHNLYGSLSVVELQNVVDRREAVKAKMREKNHVDRLYLEWSGSSSADNSQTERDILDELRPHKNIKVVKITGYRGTNFPNWLADPLFLKLVKLSLRNCKNCYSLPALGQLPFLKFLSIREMHGITEVTEEFYGSWSSKKPFNCLEKLEFKDMPEWKQWDLLGSGEFPILEKLLIENCPELSLETVPIQLSSLKSFDVIGSPLVINFPLSILPTTLKRIKISDCQKLKLEQPTGEISMFLEELTLIKCDCIDDISPELLPRARKLWVQDWHNLTRFLIPTATETLDIWNCENVEILSVACGGTQMTSLTIAYCKKLKWLPERMQELLPSLKELHLSNCPEIESFPEGGLPFNLQQLAIRYCKKLVNGRKEWHLQRRLCLTALIIYHDGSDEEIVGGENWELPSSIQRLTIVNLKTLSSQHLKNLTSLQYLFIRGNLPQIQPMLEQGQCSHLTSLQSLQISSLQSLPESALPSSLSHLEISHCPNLQSLPESALPSSLSQLTINNCPNLQSLSESTLPSSLSQLEISFCPNLQYLPLKGMPSSLSELSIYKCPLLKPQLEFDKGEYWPNIAQFPTIKIDRECM
Cell death/HR intensity, pVnt1-R3aGS4, 1dpi [1]: 0 | Cell death/HR intensity, pVnt1-R3aGS4, 2dpi [1]: 2 | Cell death/HR intensity, pVnt1-R3aGS4, 3dpi [1]: 3 | Cell death/HR intensity, pVnt1-R3aGS4, 1dpi [2]: 0 | Cell death/HR intensity, pVnt1-R3aGS4, 2dpi [2]: 0 | Cell death/HR intensity, pVnt1-R3aGS4, 3dpi [2]: 0 | Cell death/HR intensity, pVnt1-R3aGS4, 1dpi [3]: 2 | Cell death/HR intensity, pVnt1-R3aGS4, 2dpi [3]: 4 | Cell death/HR intensity, pVnt1-R3aGS4, 3dpi [3]: 4 | Cell death/HR intensity, pVnt1-R3aGS4, 1dpi [4]: 2 | Cell death/HR intensity, pVnt1-R3aGS4, 2dpi [4]: 2 | Cell death/HR intensity, pVnt1-R3aGS4, 3dpi [4]: 2
